Assays:
[1] = target: MBP:HA-HC-Pro fusion protein (ZYMV HC-Pro fused to the C-terminus of maltose binding protein, HA-tag between … (zucchini yellow mosaic virus (ZYMV), UniProt P0AEX9 27-396 = MBP)); test: cell-based or functional assay
[2] = target: the molecule itself; test: Western blot / Coomassie gel after Ni-NTA purification (self-association)

B1: Trx-cupin-protein-His-protein (A. thaliana cupin protein expressed from pET32a(+)) (other)
chain: MGCIGVVNVTSINPYLTRRSNKPYNSRRPSSMAAAIRAESTEKLGITIEKNPPESKLTQLGVRSWPKWGCPPSKFPWTYSAKETCYLLQGKVKVYPNGSDEGVEIEAGDFVVFPKGMSCTWDVSVAVDKHYQFE
notes: Expressed in BL21 (DE3) codon plus, purified by the His-tag; 34 kDa monomer; also called Tm-cupin-protein-His-protein; Trx-QP-His-protein; not shown: N-terminal pET32a(+) tags: thioredoxin (Trx-tag), 6 X His-tag, S-Tag, enterokinase site; C-terminal 6 X His-tag from pET32a(+)
For B1, the “gelshift (EMSA): binding of 21 bp siRNA-double strands by MBP-HA-HC-Pro, signal intensities (Quantity One)” value [1] was 3 fold and the binding result [2] was “binds”.
